Km data for 4 proteins are collected here from paper PMC3111191, “Molecular Evolution of Multiple Arylalkylamine N-Acetyltransferase (AANAT) in Fish” (Marine Drugs, 2011).

Substrate in data set [1]: NCCc1c[nH]c2ccccc12
Nature of the data set: colorimetric assay of CoASH release, non-linear regression. The data set is classed as biochemical, Sparus aurata. As to conditions: near-saturating AcCoA; apparent Km.

Substrate in data set [2]: NCCc1c[nH]c2ccc(O)cc12
The data set is described as above. The data set is classed as biochemical, Sparus aurata. To be noted: near-saturating AcCoA; apparent Km.

B1: AANAT2 (Sparus aurata) (protein)
chain: MTQQVSGSPFFKPFFLKTPVSLLRQRRHTLPASEFRNLTPQDAISVFEIEREAFVSVSGECPLTLDEVLNFLGQCPELSLGWFEEGQLVAFIIGSGWGKERLSQEAMTQHVPDSPAVHIHVLSVHRHCRQQGKGSILLWRFLQYLRCIPGLRRALLICEEYLVPFYQKAGFKEKGPSAISISNMQFQEMEYTIGGQAYTRRNSGC
B1: the values for the Km in data set [1] and in data set [2] were 2000 µM and 2200 µM, respectively.

B2: AANAT2 (Sparus aurata; G73T/L69R/N70H/Q74L) (protein)
chain: MTQQVSGSPFFKPFFLKTPVSLLRQRRHTLPASEFRNLTPQDAISVFEIEREAFVSVSGECPLTLDEVRHFLTLCPELSLGWFEEGQLVAFIIGSGWGKERLSQEAMTQHVPDSPAVHIHVLSVHRHCRQQGKGSILLWRFLQYLRCIPGLRRALLICEEYLVPFYQKAGFKEKGPSAISISNMQFQEMEYTIGGQAYTRRNSGC
On to B2, for which the Km (commonly the substrate concentration at which the rate is half of its maximum) in data set [1] stood at 1200 µM; in data set [2], 880 µM.

B3: AANAT2 (Sparus aurata; I157M) (protein)
chain: MTQQVSGSPFFKPFFLKTPVSLLRQRRHTLPASEFRNLTPQDAISVFEIEREAFVSVSGECPLTLDEVLNFLGQCPELSLGWFEEGQLVAFIIGSGWGKERLSQEAMTQHVPDSPAVHIHVLSVHRHCRQQGKGSILLWRFLQYLRCIPGLRRALLMCEEYLVPFYQKAGFKEKGPSAISISNMQFQEMEYTIGGQAYTRRNSGC
For the protein B3, the Km in data set [1] is 900 µM; in data set [2], 940 µM.

B4: AANAT2 (Sparus aurata; S123A) (protein)
chain: MTQQVSGSPFFKPFFLKTPVSLLRQRRHTLPASEFRNLTPQDAISVFEIEREAFVSVSGECPLTLDEVLNFLGQCPELSLGWFEEGQLVAFIIGSGWGKERLSQEAMTQHVPDSPAVHIHVLAVHRHCRQQGKGSILLWRFLQYLRCIPGLRRALLICEEYLVPFYQKAGFKEKGPSAISISNMQFQEMEYTIGGQAYTRRNSGC
Turning to B4, the Km in data set [1] and in data set [2] was 650 µM throughout.
